Test results from patent publication US20110190200A1 (INDIANA UNIVERSITY RESEARCH AND TECHNOLOGY, published 2011).
Square brackets hold non-standard residues; d marks the D form. Ends that are not written are not given here. Aib = CC(C)(N)C(=O)O

B1: Peptide dS2E16K20K30-C14 Gluc Amide (peptide)
peptide: HXQGTFTSDYSKYLDERRAKDFVQWLMNTK
modifications: d-Ser at position 2; Lys at position 30 acylated with a C14 fatty acyl group; C-terminal amide
B2: Peptide dS2K10(C14)E16K20-Gluc Amide (peptide)
peptide: HXQGTFTSDKSKYLDERRAKDFVQWLMNT
modifications: d-Ser at position 2; Lys at position 10 acylated with a C14 fatty acyl group; C-terminal amide
B3: Peptide dS2E16K20K30-C16 Gluc Amide (peptide)
peptide: B1 peptide
modifications: d-Ser at position 2; Lys at position 30 acylated with a C16 fatty acyl group; C-terminal amide
B4: Peptide dS2K10(C16)E16K20-Gluc Amide (peptide)
peptide: HXQGTFTSDKSKYLDERRAKDFVQWLMNT
modifications: d-Ser at position 2; Lys at position 10 acylated with a C16 fatty acyl group; C-terminal amide

Tests used:
Experiment in all cases: cell-based or functional assay
GLP-1 receptor [1] = molecular target: T1, GLP-1 receptor (UniProt P43220 24-463, limits assumed)
glucagon receptor [2] = molecular target: T2, glucagon receptor (human, UniProt P47871 26-477)
GLP-1 receptor [3] = molecular target: T1, GLP-1 receptor; remark: listed apart in the source
glucagon receptor [4] = molecular target: T2, glucagon receptor; remark: listed apart in the source
glucagon receptor [5] = molecular target: T2, glucagon receptor; remark: listed apart in the source
glucagon receptor [6] = molecular target: T2, glucagon receptor; remark: listed apart in the source
GLP-1 receptor [7] = molecular target: T1, GLP-1 receptor; remark: listed apart in the source
glucagon receptor [8] = molecular target: T2, glucagon receptor; remark: listed apart in the source

T2 sequence (P47871 26-477): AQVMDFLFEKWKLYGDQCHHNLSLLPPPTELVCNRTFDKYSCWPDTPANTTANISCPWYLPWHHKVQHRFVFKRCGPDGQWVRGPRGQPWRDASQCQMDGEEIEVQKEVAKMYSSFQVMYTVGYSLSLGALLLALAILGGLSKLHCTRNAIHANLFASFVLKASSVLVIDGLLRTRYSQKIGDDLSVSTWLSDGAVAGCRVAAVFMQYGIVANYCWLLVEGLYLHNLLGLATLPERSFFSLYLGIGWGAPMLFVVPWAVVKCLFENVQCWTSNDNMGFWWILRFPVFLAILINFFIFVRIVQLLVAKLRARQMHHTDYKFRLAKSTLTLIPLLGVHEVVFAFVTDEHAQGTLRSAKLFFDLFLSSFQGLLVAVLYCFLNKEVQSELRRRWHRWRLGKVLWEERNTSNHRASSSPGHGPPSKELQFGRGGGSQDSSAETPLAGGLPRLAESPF

Binder | EC50 at the GLP-1 receptor (GLP-1 receptor [1]) [pM] | EC50 at the glucagon receptor (glucagon receptor [2]) [pM] | further results
B1 | 840 | 3530 | –
B2 | 41 | 155 | –
B3 | 3050 | 4890 | –
B4 | 41 | 76 | –
HSQGTFTSDYSRYLDSRRAQDFVQWLMNK [Glucagon R12 K29] | – | – | cAMP Induction, EC50 (GLP-1 receptor [3]): 410 pM; cAMP Induction, EC50 (glucagon receptor [4]): 810 pM
HSQGTFTSDYSKYLDSRRAQDFVQWLMDE [D28/E29 Glucagon] | – | – | EC50, in vitro activity at the glucagon receptor (glucagon receptor [5]): 60 pM; Observed EC50s (nM) in Cells Overexpressing the Glucagon Receptor, Test 3 (glucagon receptor [6]): 0.03 nM
HSQGTFTSDYSKYLD[Aib]RRA[Aib]DFVQWLMNT [AIB 16, 20 Glucagon] | – | – | GLP-1 Receptor, Average (assay of Example 13) (GLP-1 receptor [7]): 13.6 nM; Glucagon Receptor, Average (assay of Example 13) (glucagon receptor [8]): 0.26 nM
HSQGTFTSDYSKYLD[Aib]RRA[Aib]DFV[Aib]WLMNT [AIB 16, 20, 24 Glucagon] | – | – | GLP-1 Receptor, Average (assay of Example 13) (GLP-1 receptor [7]): 12.2 nM
HSQGTFTSDYSKYLD[Aib]RRAQDFVQWLMDE [AIB 16/D28/E29 Glucagon] | – | – | EC50, in vitro activity at the glucagon receptor (glucagon receptor [5]): 80 pM
